2 molecules from patent US20020019040A1 (LEADD B V, published 2002) can be followed below.

Test [1] concerns the target T1, fusion gene product of GAL4-DNA-binding domain and Apoptin (bait plasmid pGBT-VP3) (chicken anemia virus, UniProt P04386 1-147; Q99152 1-121).
T1 construct: Yeast two-hybrid bait, expressed in yeast strain Y190; also called pGBT9-VP3; not shown: residues encoded by the EcoRI-NdeI linker
The test can be described thus: yeast two-hybrid control (HIS3 and LacZ reporters).

The target of test [2] is T1, fusion gene product of GAL4-DNA-binding …. The test can be described thus: yeast two-hybrid.

B1: GAL4-activation domain of the empty pACT vector (other)
chain: ANFNQSGNIADSSLSFTFTNSSNGPNLITTQTNSQALSQPIASSNVHDNFMNNEITASKIDDGNNSKPLSPGWTDQTAYNAFGITTGMFNTTTMDDVYNYLFDDEDTPPNPKKE
notes: Negative control of the yeast two-hybrid system
Consider B1, for which, in test [1], the binding result was “no binding”.

B2: GAL4-activation domain fusion of the AAP-3 cDNA clone (pACT) (other)
chain: HEGPMVGGGGVGGGLLENANPLIYQRSGERPVTAGEEDEQVPDSIDAREIFDLIRSINDPEHPLTLEELNVVEQVRVQVSDPESTVAVAFTPTIPHCSMATLIGLSIKVKLLRSLPQRFKMDVHITPGTHASEHAVNKQLADKERVAAALENTHLLEVVNQCLSARS
notes: Yeast two-hybrid prey; also called Apoptin-associating clone AAP-3
On to B2, for which, in test [2], the binding result is on record as “binds”.
